Assay results from paper PMC3155284.

Columns and labels:
[1] = target: EphA2, endogenous (human (endogenous in PC3 and U251)) (UniProt P29317)
[2] = target: EphA2, endogenous (human (endogenous in PC3 and U251)) (UniProt P29317); remark: listed apart in the source

Chain of UniProt P29317 (P29317 24-976): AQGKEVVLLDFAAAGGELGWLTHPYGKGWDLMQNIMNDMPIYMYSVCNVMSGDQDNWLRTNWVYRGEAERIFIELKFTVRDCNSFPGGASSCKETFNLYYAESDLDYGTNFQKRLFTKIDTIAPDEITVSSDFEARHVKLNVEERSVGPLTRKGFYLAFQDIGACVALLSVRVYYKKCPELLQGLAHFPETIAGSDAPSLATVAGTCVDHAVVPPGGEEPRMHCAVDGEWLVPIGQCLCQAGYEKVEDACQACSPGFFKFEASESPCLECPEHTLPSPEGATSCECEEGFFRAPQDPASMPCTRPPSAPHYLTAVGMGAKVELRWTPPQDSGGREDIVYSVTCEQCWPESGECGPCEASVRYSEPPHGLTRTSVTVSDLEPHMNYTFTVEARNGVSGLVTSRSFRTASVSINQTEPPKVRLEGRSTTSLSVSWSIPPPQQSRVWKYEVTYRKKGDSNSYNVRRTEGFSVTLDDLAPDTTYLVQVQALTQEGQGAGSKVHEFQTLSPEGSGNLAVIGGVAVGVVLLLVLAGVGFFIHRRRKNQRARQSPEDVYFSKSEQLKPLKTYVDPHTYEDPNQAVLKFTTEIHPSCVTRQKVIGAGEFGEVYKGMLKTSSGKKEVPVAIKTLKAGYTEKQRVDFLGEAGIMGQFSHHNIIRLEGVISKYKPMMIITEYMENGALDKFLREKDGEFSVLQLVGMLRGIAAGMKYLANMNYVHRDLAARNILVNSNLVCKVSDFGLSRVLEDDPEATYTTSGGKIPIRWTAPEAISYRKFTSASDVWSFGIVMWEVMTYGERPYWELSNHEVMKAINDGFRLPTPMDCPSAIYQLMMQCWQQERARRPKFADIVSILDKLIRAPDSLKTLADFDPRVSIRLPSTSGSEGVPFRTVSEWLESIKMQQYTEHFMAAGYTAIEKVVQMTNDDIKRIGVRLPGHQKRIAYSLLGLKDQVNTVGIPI

ephrin A1-Fc (from UniProt P20827 19-182) (Fc fusion)
inhibition of U251 cell migration in Boyden chambers by ligand [1]: 50%
rounding of PC3 cells after a brief exposure to ephrin A1-Fc [2]: 90%
